Residue numbers refer to the chain shown, from its start.
B1: MS-112 (antibody)
VH: not shown
VL: DFVLTQSPHSLSVTPGEPASISCKSSHSLIHGDRNNYLAWYVQKPGRSPQLLIYLASSRASGVPDRFSGSGSGKDFTLKISRVEAEDVGTYYCMQGRESPWTFGQGTKVDIKRTVAAPSVFIFPPSDEQLKSGTASVVCLLNNFYPREAKVQWKVDNALQSGNSQESVTEQDSKDSTYSLSSTLTLSKADYEKHKVYACEVTHQGLSSPVTKSFNRGEC
B2: MS-114 (antibody)
VH: not shown
VL: B1 VL with F2I, H9L, G73D
B3: MS-113 (antibody)
VH: not shown
VL: B1 VL with F2I, H9L, A85T
B4: MS-115 (antibody)
VH: not shown
VL: B1 VL with F2I, H9L, P18S
B5: MS-86 (antibody)
VH: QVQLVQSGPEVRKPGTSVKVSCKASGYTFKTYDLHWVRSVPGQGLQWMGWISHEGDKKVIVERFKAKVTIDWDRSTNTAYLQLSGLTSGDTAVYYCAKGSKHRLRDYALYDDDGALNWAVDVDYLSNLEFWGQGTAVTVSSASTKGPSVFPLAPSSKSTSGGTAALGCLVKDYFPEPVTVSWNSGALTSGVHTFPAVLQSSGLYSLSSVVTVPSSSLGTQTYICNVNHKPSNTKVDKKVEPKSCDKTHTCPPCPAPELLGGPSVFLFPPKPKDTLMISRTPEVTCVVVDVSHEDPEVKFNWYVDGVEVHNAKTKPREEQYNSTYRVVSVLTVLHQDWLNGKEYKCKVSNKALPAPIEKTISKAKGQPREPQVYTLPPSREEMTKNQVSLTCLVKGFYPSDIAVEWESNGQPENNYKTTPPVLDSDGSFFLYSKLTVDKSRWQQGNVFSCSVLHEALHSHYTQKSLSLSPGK
VL: B1 VL with P18S, G73D, A85T
B6: MS-90 (antibody)
VH: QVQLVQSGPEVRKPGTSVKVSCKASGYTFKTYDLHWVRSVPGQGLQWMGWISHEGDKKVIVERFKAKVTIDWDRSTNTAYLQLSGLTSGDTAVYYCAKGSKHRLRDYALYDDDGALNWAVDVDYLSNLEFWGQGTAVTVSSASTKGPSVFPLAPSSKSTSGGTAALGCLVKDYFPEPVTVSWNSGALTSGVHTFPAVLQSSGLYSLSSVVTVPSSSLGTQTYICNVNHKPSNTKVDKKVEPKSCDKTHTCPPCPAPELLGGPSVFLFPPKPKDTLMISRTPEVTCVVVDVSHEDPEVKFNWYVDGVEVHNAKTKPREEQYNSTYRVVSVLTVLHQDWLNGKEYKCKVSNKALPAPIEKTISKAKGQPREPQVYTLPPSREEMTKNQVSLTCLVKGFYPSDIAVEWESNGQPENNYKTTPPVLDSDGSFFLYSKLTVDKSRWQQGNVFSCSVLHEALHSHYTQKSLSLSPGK
VL: B1 VL with H9L, P18S, G73D, A85T
B7: MS-85 (antibody, V domains shown)
VH: QVQLVQSGPEVRKPGTSVKVSCKAPGNTLKTYDLHWVRSVPGQGLQWMGWISHEGDKKVIVERFKAKVTIDWDRSTNTAYLQLSGLTSGDTAVYYCAKGSKHRLRDYALYDDDGALNWAVDVDYLSNLEFWGQGTAVTVSS
VL: DIVLTQSPHSLSVTPGESASISCKSSHSLIHGDRNNYLAWYVQKPGRSPQLLIYLASSRASGVPDRFSGSGSGTDFTLKISRVETEDVGTYYCMQGRESPWTFGQGTKVDIKR
B8: MS-89 (antibody, V domains shown)
VH: B7 VH with N27Y, D71T
VL: B7 VL with I2F, H9L, G73D, T74K
B9: MS-92 (antibody, V domains shown)
VH: B7 VH with Q46E, W72R, T87R
VL: B7 VL with G73D, T74K
B10: MS-87 (antibody, V domains shown)
VH: B7 VH with D71T, W72R
VL: B7 VL with I2F, G73D, T74K
B11: MS-91 (antibody, V domains shown)
VH: B7 VH with P25S, N27Y
VL: B7 VL with I2F, H9L, G73D
B12: MS-88 (antibody, V domains shown)
VH: B7 VH with P25S, N27Y, L29F, D71T, W72R
VL: B7 VL with I2F, G73D, T74K

The binders below were run against HIV-1 envelope glycoprotein of pseudovirus SC422661.8 (HIV-1) (assay: cell-based or functional assay).

Binder | IC50 (neutralization in TZM.bl cells) [µg/mL] | IC80 (neutralization in TZM.bl cells) [µg/mL]
B1 | 0.275 | 1.44
B2 | 0.236 | 2.21
B3 | 0.354 | 2.12
B4 | 0.202 | 1.03

Each binder was assayed against HIV-1 envelope glycoprotein of pseudovirus CNE52 (HIV-1) (assay: cell-based or functional assay).

Binder | IC50 (neutralization in TZM.bl cells) [µg/mL] | IC80 (neutralization in TZM.bl cells) [µg/mL]
B1 | 0.133 | 1.16
B2 | 0.444 | 3.61
B3 | 0.502 | 5.04
B4 | 0.489 | 5.46

The binders below were run against HIV-1 envelope glycoprotein of pseudovirus DU172.17 (HIV-1) (assay: cell-based or functional assay).

Binder | IC50 (neutralization in TZM.bl cells) [µg/mL] | IC80 (neutralization in TZM.bl cells) [µg/mL]
B1 | 1.77 | 4.91
B2 | 1.66 | 7.74
B3 | 2.22 | 8.27
B4 | 1.83 | 5.04

These binders were tested against HIV-1 envelope glycoprotein of pseudovirus RHPA4259.7 (HIV-1) (assay: cell-based or functional assay).

Binder | IC50 (neutralization in TZM.bl cells) [µg/mL] | IC80 (neutralization in TZM.bl cells) [µg/mL]
B1 | 0.195 | 0.661
B2 | 0.237 | 1.24
B3 | 0.206 | 0.696
B4 | 0.237 | 0.647

What follows are binders tested against HIV-1 envelope glycoprotein of pseudovirus BB1012-11.TC21 (HIV-1) (assay: cell-based or functional assay).

Binder | IC50 (neutralization in TZM.bl cells) [µg/mL] | IC80 (neutralization in TZM.bl cells) [µg/mL]
B1 | 0.032 | 0.129
B2 | 0.033 | 0.136
B3 | 0.026 | 0.109
B4 | 0.024 | 0.106

What follows are binders tested against HIV-1 envelope glycoprotein of pseudovirus 0260.v5.c36 (HIV-1) (assay: cell-based or functional assay).

Binder | IC50 (neutralization in TZM.bl cells) [µg/mL] | IC80 (neutralization in TZM.bl cells) [µg/mL]
B1 | 0.022 | 0.059
B2 | 0.03 | 0.105
B3 | 0.026 | 0.092
B4 | 0.025 | 0.067

These binders were tested against HIV-1 pseudovirus Ce1176_A3 (HIV-1) (assay: cell-based or functional assay).

Binder | IC50 (neutralization in TZM.bl cells) [µg/mL] | IC80 (neutralization in TZM.bl cells) [µg/mL]
B5 | 0.366 | 4.25
B6 | 0.22 | 4.24
B7 | 0.073 | 1.72
B8 | 0.298 | 9.21
B9 | 0.6 | 9.78
B10 | 0.907 | 25
B11 | 0.213 | 2.04
B12 | 2.76 | > 25

These binders were tested against HIV-1 pseudovirus AC10.0.29 (HIV-1) (assay: cell-based or functional assay).

Binder | IC50 (neutralization in TZM.bl cells) [µg/mL] | IC80 (neutralization in TZM.bl cells) [µg/mL]
B5 | 0.107 | 0.741
B6 | 0.059 | 0.592
B7 | 0.044 | 0.242
B8 | 0.067 | 0.618
B9 | 0.051 | 0.446
B10 | 0.059 | 0.328
B11 | 0.07 | 0.632
B12 | 0.089 | 0.743

What follows are binders tested against HIV-1 pseudovirus X1193_c1 (HIV-1) (assay: cell-based or functional assay).

Binder | IC50 (neutralization in TZM.bl cells) [µg/mL] | IC80 (neutralization in TZM.bl cells) [µg/mL]
B5 | 0.167 | 0.371
B6 | 0.114 | 0.399
B7 | 0.068 | 0.507
B8 | 0.144 | 0.636
B9 | 0.11 | 0.529
B10 | 0.098 | 0.277
B11 | 0.057 | 0.388
B12 | 0.171 | 0.775

What follows are binders tested against HIV-1 pseudovirus SC05.8C11.2344 (HIV-1) (assay: cell-based or functional assay).

Binder | IC50 (neutralization in TZM.bl cells) [µg/mL] | IC80 (neutralization in TZM.bl cells) [µg/mL]
B5 | 1.62 | 5.39
B6 | 1.5 | 3.84
B7 | 0.425 | 1.49
B8 | 0.82 | 3.75
B9 | 1.54 | 4.09
B10 | 1.23 | 5.17
B11 | 0.848 | 2.84
B12 | 1.54 | 7.31

Each binder was assayed against HIV-1 pseudovirus 263-8 (HIV-1) (assay: cell-based or functional assay).

Binder | IC50 (neutralization in TZM.bl cells) [µg/mL] | IC80 (neutralization in TZM.bl cells) [µg/mL]
B5 | 0.009 | 0.05
B6 | 0.021 | 0.109
B7 | 0.011 | 0.043
B8 | > 25 | > 25
B9 | 0.024 | 0.208
B10 | 0.065 | 0.361
B11 | 0.02 | 0.075
B12 | 0.111 | 0.99

What follows are binders tested against HIV-1 pseudovirus 6952.v1.c20 (HIV-1) (assay: cell-based or functional assay).

Binder | IC50 (neutralization in TZM.bl cells) [µg/mL] | IC80 (neutralization in TZM.bl cells) [µg/mL]
B5 | 2.55 | > 25
B6 | 2.68 | > 25
B7 | 0.393 | > 25
B8 | > 25 | > 25
B9 | 7.38 | > 25
B10 | > 25 | > 25
B11 | 2.62 | > 25
B12 | > 25 | > 25

From patent publication US20220025021A1 (BETH ISRAEL DEACONESS MEDICAL CENTER, published 2022)
